Consider 43 substances from patent US20090170750A1 (Novo Nordisk, published 2009).

For this assay, the target named is purified recombinant human insulin receptor-exon 11 (human) (UniProt P06213). Description: competition with 125I-insulin (SPA).
purified recombinant human insulin receptor-exon 11 (human), sequence (P06213 other isoform, or with tags, fused parts or gaps limits assumed, form in doubt): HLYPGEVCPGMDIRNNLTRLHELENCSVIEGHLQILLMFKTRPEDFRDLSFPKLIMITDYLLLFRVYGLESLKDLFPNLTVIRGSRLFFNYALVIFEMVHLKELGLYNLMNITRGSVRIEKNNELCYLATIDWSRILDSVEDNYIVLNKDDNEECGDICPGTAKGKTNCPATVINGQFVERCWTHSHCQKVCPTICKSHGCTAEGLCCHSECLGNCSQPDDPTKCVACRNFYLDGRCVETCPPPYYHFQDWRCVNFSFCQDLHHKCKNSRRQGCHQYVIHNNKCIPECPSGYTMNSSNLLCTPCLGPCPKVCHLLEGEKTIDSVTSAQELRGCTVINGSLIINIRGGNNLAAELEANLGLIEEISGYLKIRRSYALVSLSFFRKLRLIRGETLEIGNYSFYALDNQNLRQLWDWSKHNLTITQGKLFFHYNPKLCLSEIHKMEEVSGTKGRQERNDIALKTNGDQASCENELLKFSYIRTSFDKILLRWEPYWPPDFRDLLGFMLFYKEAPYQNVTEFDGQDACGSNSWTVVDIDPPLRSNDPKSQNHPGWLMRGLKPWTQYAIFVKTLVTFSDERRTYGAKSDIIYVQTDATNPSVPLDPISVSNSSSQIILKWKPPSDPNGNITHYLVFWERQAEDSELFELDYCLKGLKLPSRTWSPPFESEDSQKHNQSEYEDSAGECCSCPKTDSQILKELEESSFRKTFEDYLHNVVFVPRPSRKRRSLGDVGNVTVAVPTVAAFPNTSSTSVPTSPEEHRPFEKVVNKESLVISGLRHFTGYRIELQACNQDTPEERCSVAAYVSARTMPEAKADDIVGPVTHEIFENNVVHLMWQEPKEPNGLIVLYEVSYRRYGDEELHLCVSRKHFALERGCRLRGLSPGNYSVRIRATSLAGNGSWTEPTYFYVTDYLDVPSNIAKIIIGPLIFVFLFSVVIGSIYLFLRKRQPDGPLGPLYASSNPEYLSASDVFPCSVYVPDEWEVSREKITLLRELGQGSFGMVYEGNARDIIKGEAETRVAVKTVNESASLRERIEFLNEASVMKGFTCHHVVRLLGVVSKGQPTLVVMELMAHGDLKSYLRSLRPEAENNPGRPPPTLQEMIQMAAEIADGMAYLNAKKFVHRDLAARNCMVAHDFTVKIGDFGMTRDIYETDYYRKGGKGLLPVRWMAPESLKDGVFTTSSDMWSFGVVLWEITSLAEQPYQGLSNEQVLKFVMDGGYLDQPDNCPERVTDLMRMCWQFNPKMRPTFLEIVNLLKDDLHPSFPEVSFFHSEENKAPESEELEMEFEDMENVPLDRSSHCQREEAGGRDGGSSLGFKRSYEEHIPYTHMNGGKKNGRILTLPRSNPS
Turning to “single-chain insulin PAK 1787, connecting peptide VGLSSGQ [A18Q_A21G] (from UniProt P01308 25-53; P01308 90-110) (ligand)”, the IR, binding relative to human insulin is 123%.
For “single-chain insulin PAK 1869, connecting peptide VGLSSGQ [B22K_B29A_A18Q] (from UniProt P01308 25-53; P01308 90-110) (ligand)” the value was 69%.
The result for “single-chain insulin PAK 1738, connecting peptide VGSSSGK [A18Q] (from UniProt P01308 25-53; P01308 90-110) (ligand)” reads 89%.
For “single-chain insulin PAK 1789, connecting peptide VGLRSGK [A18Q_A21G] (from UniProt P01308 25-53; P01308 90-110) (ligand)” the value was 248%; for “single-chain insulin PAK 1810, connecting peptide TGLGSGQ [A18Q_A21G] (from UniProt P01308 25-53; P01308 90-110) (ligand)”, 73%; for “single-chain insulin PAK 1802, connecting peptide AGRGK [A18Q_A21G] (from UniProt P01308 25-53; P01308 90-110) (ligand)”, 25%.
Consider “single-chain insulin PAK 1848, connecting peptide TGLGKGR [B27E_B29E_A18Q] (from UniProt P01308 25-53; P01308 90-110) (ligand)”, for which the IR, binding relative to human insulin stood at 40%.
The result for “single-chain insulin PAK 1818, connecting peptide KGLGSGQ [B3Q_B29R_A18Q_A21G] (from UniProt P01308 25-53; P01308 90-110) (ligand)” reads 125%.
The result for “single-chain insulin PAK 1769020, connecting peptide SVGSSSGK [A18Q_A21G] (from UniProt P01308 25-53; P01308 90-110) (ligand)” reads 51%.
Turning to “single-chain insulin PAK 1855, connecting peptide VGLYSGK [B28D_A18Q] (from UniProt P01308 25-53; P01308 90-110) (ligand)”, the IR, binding relative to human insulin came to 221%.
For “single-chain insulin PAK 1764, connecting peptide AGLGSGK [A18Q_A21G] (from UniProt P01308 25-53; P01308 90-110) (ligand)” the value was 120%.
“single-chain insulin PAK 1785, connecting peptide ASWGSGK [A18Q_A21G] (from UniProt P01308 25-53; P01308 90-110) (ligand)”: the IR, binding relative to human insulin was determined as 136%.
The result for “single-chain insulin PAK 1878, connecting peptide VGLSSGQ [B3K_A18K_A21G] (from UniProt P01308 25-53; P01308 90-110) (ligand)” reads 172%; that for “single-chain insulin PAK 1769062, connecting peptide PVGSSSGK [A18Q_A21G] (from UniProt P01308 25-53; P01308 90-110) (ligand)”, 56%; that for “single-chain insulin PAK 1854, connecting peptide VGLYSGK [B29E_A18Q] (from UniProt P01308 25-53; P01308 90-110) (ligand)”, 40%.
The result for “single-chain insulin PAK 1835, connecting peptide TGLGKGQ [B29E_A18Q] (from UniProt P01308 25-53; P01308 90-110) (ligand)” reads 50%; that for “single-chain insulin PAK 1847, connecting peptide TGLGKGR [B27E_B29A_A18Q] (from UniProt P01308 25-53; P01308 90-110) (ligand)”, 82%.
For “single-chain insulin PAK 1821, connecting peptide TGLGSGK [B3Q_B29R_A18Q_A21G] (from UniProt P01308 25-53; P01308 90-110) (ligand)” the value was 128%.
Regarding “single-chain insulin PAK 1790, connecting peptide VGLMSGK [A18Q_A21G] (from UniProt P01308 25-53; P01308 90-110) (ligand)”, the IR, binding relative to human insulin was determined as 261%.
The result for “single-chain insulin PAK 1864, connecting peptide TGLGSGK [B3K_A18Q_A21G] (from UniProt P01308 25-53; P01308 90-110) (ligand)” reads 301%; that for “single-chain insulin PAK 1880, connecting peptide VGLSSGQ [B1G_B3Q_A18Q_A21G] (from UniProt P01308 25-53; P01308 90-110) (ligand)”, 54%; that for “single-chain insulin PAK 1884, connecting peptide VGLSSGQ [B29A_A8K_A18Q] (from UniProt P01308 25-53; P01308 90-110) (ligand)”, 89%.
As for “single-chain insulin PAK 1767, connecting peptide AGRGSGP [A18Q_A21G] (from UniProt P01308 25-53; P01308 90-110) (ligand)”, the IR, binding relative to human insulin is 28%.
For “single-chain insulin PAK 1871, connecting peptide VGLSSGQ [B29A_A18K] (from UniProt P01308 25-53; P01308 90-110) (ligand)” the value was 82%; for “single-chain insulin PAK 1816, connecting peptide AGLGSGQ [B3Q_A18Q] (from UniProt P01308 25-53; P01308 90-110) (ligand)”, 37%.
The result for “single-chain insulin with connecting peptide QGSSGK (SEQ ID NO:110), no PAK number printed (from UniProt P01308 25-53; P01308 90-110) (ligand)” reads 36%.
For “single-chain insulin PAK 1800, connecting peptide AGRGSGK [A18Q_A21G] (from UniProt P01308 25-53; P01308 90-110) (ligand)” the value was 175%; for “single-chain insulin PAK 1824, connecting peptide GRGSGK [B1G_B3Q_A18Q_A21G] (from UniProt P01308 25-53; P01308 90-110) (ligand)”, 75%; for “single-chain insulin PAK 1892, connecting peptide TGLGSGQ [desB1_B3Q_B10A_A18Q] (from UniProt P01308 26-53; P01308 90-110) (ligand)”, 38%.
Turning to “single-chain insulin PAK 1846, connecting peptide TGLGKGR [B29A_A18Q] (from UniProt P01308 25-53; P01308 90-110) (ligand)”, the IR, binding relative to human insulin was 92%.
For “single-chain insulin PAK 1733, connecting peptide VGSSSGK [A21G] (from UniProt P01308 25-53; P01308 90-110) (ligand)” the value was 42%; for “single-chain insulin with connecting peptide GGSSGK (SEQ ID NO:116), no PAK number printed (from UniProt P01308 25-53; P01308 90-110) (ligand)”, 23%; for “single-chain insulin PAK 1784, connecting peptide WASGSGK [A18Q_A21G] (from UniProt P01308 25-53; P01308 90-110) (ligand)”, 23%.
In the case of “single-chain insulin with connecting peptide LGSSGK (SEQ ID NO:113), no PAK number printed (from UniProt P01308 25-53; P01308 90-110) (ligand)”, the IR, binding relative to human insulin is 49%.
For “single-chain insulin PAK 1723, connecting peptide VGSSRGK [A21G] (from UniProt P01308 25-53; P01308 90-110) (ligand)” the value was 33%; for “single-chain insulin with connecting peptide QGSSGK (SEQ ID NO:115), no PAK number printed (from UniProt P01308 25-53; P01308 90-110) (ligand)”, 34%.
For “single-chain insulin PAK 1811, connecting peptide TGLGSGK [A18Q_A21G] (from UniProt P01308 25-53; P01308 90-110) (ligand)” the value was 136%; for “single-chain insulin PAK 1838, connecting peptide TGLGKGQ [B29R_A18Q] (from UniProt P01308 25-53; P01308 90-110) (ligand)”, 113%; for “single-chain insulin PAK 1769053, connecting peptide GVGSSSGK [A18Q_A21G] (from UniProt P01308 25-53; P01308 90-110) (ligand)”, 37%.
For “single-chain insulin PAK 1769033, connecting peptide PVGSSSGK [A18Q_A21G] (from UniProt P01308 25-53; P01308 90-110) (ligand)” the value was 37%; for “single-chain insulin PAK 1744, connecting peptide VGSSSGK [A18Q_A21G] (from UniProt P01308 25-53; P01308 90-110) (ligand)”, 80%; for “single-chain insulin PAK 1808, connecting peptide AGRGSGK [B1G_B3Q_A18Q_A21G] (from UniProt P01308 25-53; P01308 90-110) (ligand)”, 86%.
Consider “single-chain insulin PAK 1769013, connecting peptide QVGSSSGK [A18Q_A21G] (from UniProt P01308 25-53; P01308 90-110) (ligand)”, for which the IR, binding relative to human insulin was found to be 33%.
